Assays:
FasL = molecular target: T1, FasL (UniProt P48023 134-281, limits assumed); test: BLI (Octet RH96, FIG. 22)
T1 sequence (looked up): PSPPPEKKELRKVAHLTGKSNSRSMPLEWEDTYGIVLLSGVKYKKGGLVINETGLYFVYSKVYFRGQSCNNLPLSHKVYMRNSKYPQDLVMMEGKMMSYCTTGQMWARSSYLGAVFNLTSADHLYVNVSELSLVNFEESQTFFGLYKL

TRAIL = TRAIL (UniProt P50591 114-281); test: BLI (Octet RH96, FIG. 22)
LIGHT = LIGHT (UniProt O43557 74-240, limits assumed); test: BLI (Octet RH96, FIG. 22)
[1] = molecular target: T2, soluble recombinant human TL1A trimer (human, UniProt O95150 72-251, limits assumed); test: SPR at 37 C, soluble TL1A trimer up to 100 nM; apparent KD (KDapp)
T2 construct: also called active TL1A trimer; trimeric TL1A
T2 sequence (looked up): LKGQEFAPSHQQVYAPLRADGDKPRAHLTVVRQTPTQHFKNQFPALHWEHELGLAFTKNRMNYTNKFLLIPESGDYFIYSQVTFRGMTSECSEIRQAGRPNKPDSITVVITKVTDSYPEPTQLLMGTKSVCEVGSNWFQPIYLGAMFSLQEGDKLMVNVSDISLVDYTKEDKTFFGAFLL
Protocol: In addition to measuring binding to scTL1A, binding to increasing concentrations of soluble recombinant human TL1A trimer (up to 100 nM) was measured at 37C via surface plasmon resonance.

[2] = molecular target: T3, membrane-bound TL1A transiently expressed on CHO cells (human, UniProt O95150 1-251); test: flow cytometry on CHO cells transiently transfected with TL1A, 1 hour at 4 C
T3 construct: whole, on cells
T3 sequence (looked up): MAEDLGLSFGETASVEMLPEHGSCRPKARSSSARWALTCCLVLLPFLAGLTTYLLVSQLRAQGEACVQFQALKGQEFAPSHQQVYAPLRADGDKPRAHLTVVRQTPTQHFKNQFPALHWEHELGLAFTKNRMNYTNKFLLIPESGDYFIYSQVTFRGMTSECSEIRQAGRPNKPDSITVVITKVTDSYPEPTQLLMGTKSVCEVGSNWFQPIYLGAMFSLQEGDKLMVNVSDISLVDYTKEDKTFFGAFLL
Protocol: Anti-TL1A mAbs were first screened for binding affinity to membrane-bound TL1A. CHO cells were transiently transfected to express TL1A, then were incubated with anti-TL1A mAbs for 1 hour at 4° C. and analyzed by flow cytometry. Hundreds of anti-TL1A mAbs were screened for binding, in order to determine which were the best binders to investigate further. […] The binding data is depicted in FIG. 16A.

Sequence of TRAIL (P50591 114-281 limits assumed): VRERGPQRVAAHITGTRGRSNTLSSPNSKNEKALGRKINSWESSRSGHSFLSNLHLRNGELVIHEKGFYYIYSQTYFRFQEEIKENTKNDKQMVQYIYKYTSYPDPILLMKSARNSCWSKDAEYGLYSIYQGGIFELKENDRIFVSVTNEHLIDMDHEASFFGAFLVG
Sequence of LIGHT (O43557 74-240 limits assumed): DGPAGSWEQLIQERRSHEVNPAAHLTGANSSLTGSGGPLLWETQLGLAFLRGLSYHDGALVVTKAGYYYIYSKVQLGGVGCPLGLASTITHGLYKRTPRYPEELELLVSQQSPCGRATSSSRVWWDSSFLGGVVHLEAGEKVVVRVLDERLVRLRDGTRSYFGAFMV

- binding result (FasL): no binding
- binding result (TRAIL): no binding
- binding result (LIGHT): no binding
- Kd [1]: 8 to 10 pM
- EC50 [2]: 1100 pM
B1: XENP47942 70416_041[TL1a]_H1L1_Fab IgG1_PVA_/S267K/M428L/N434S (antibody, V domains shown)
VH: QVQLVQSGAEVKKPGASVKVSCKVSGFSVTSYNVHWVRQAPGQGLEWMGVMWSGGNTDYNSKFQGRVTMTRDTSTNTVYMELSSLRSEDTAVYYCARAGRYYHDSNYYWDFPYWGQGTLVTVSS
VL: DIQMTQSPSSVSASVGDRVTITCRASEDIYSGLAWYQQKPGKSPKLLIYGASSLQDGVPSRFSGSGSGTDYTLTISSLQPEDFATYFCQEGLKSPYTFGAGTKLEIKR
notes: also called XmAb942; Xmab942
